Marks after values point to notes of the source that are not given here.
Experiments:
HPV-16 genome = experiment: qPCR sensitivity against HPV-16 copy number (known-copy HPV-16 DNA among 10 ng normal human DNA); conditions: for reaction under 30 copies of HPV-16 genome: among 10 ng normal DNA, triplicate qPCR
From the text: All samples were run in triplicates.
To seek the most promising primer-probe set in the viewpoint of sensitivity, Applicants evaluated the sensitivity analysis for these candidate primer-probe sets. […] Therefore, the sensitivity of E6 (FIG. 3A) and E7 (FIG. 3B) was also 30 copies. […] The candidate primer-probe sets were the “Min-4” (FIG. 3C), “Min-5” (FIG. 3D), “Min-6” (FIG. 3E), “Max-10” (FIG. 3F), “E6-11” (FIG. 3G), “E6-13” (FIG. 3H), respectively.
In addition, Applicants performed sensitivity analysis to identify the most sensitive primer/probe set from among the candidate sets.
To validate the function of primer/probe sets, Applicants calculated the slope of delta Rn against cycle threshold for HPV-16 copy number detection from defined HPV copy number DNA derived from CaSki cell line.

HPV-16 = experiment: qPCR sensitivity against HPV-HNSCC tumor samples diluted among 10 ng normal human DNA
[1] = samples tested 3 times, 10 ng DNA from healthy individual
[2] = tumor DNA dilution, fraction of 32 samples

B1: BR E1-4: HPV-16 E1 region primer/probe set, SEQ ID NO: 37-39 (nucleic acid)
DNA 1: ATGCACAATTGGCAGACACTA
DNA 2: ACAATCCTTTACAATTTTTGCCTGT
DNA 3: TAATGCAAGTGCCTTTCTAAAAAGT
modifications: chemistry not given here
For B1, the “reaction under 30 copies of HPV-16 genome” value (HPV-16 genome) was “consistently amplified”, the “reaction under 30 copies of HPV-16 genome” value (HPV-16 genome; listed as Min-4) was “react consistently” and the “number of reactions against 10 HPV-16 copies” value (HPV-16 genome; [1]) was 2 reactions. The “number of reactions under 30 HPV-16 copies” value (HPV-16 genome; [1]) was 3 reactions, the “sensitivity under 100 cells” value (HPV-16; 32 HPV-HNSCC tumor samples) was 93.8% and the “sensitivity under single cells” value (HPV-16; 32 HPV-HNSCC tumor samples, 6.6 pg DNA) was 21.9%. For the same molecule, the “sensitivity under 10 cells” value (HPV-16; 32 HPV-HNSCC tumor samples, 66 pg DNA) was 78.1%, the “Threshold of tumor cell numbers for HPV-16 detection” value (“Threshold of tumor cell numbers” below) (HPV-16; Sample # 1) was 150.0 tumor cells and the “Threshold of tumor cell numbers” value (HPV-16; Sample # 2) was 150.0 tumor cells. The “Threshold of tumor cell numbers” value (HPV-16; Sample # 3) was 1.2 tumor cells, the “Threshold of tumor cell numbers” value (HPV-16; Sample # 4) was 6.0 tumor cells and the “Threshold of tumor cell numbers” value (HPV-16; Sample # 5) was 30.0 tumor cells. For the same molecule, the “Threshold of tumor cell numbers” value (HPV-16; Sample # 6) was 30.0 tumor cells, the “Threshold of tumor cell numbers” value (HPV-16; Sample # 7) was 30.0 tumor cells and the “Threshold of tumor cell numbers” value (HPV-16; Sample # 8) was 50.0 tumor cells. The “Threshold of tumor cell numbers” value (HPV-16; Sample # 9) was 1.2 tumor cells, the “Threshold of tumor cell numbers” value (HPV-16; Sample # 10) was 1.2 tumor cells and the “Threshold of tumor cell numbers” value (HPV-16; Sample # 11) was 1.2 tumor cells. The “Threshold of tumor cell numbers” value (HPV-16; Sample # 12) was 3.0 tumor cells, the “Threshold of tumor cell numbers” value (HPV-16; Sample # 13) was 6.0 tumor cells and the “Threshold of tumor cell numbers” value (HPV-16; Sample # 14) was 6.0 tumor cells. The “Threshold of tumor cell numbers” value (HPV-16; Sample # 15) was 6.0 tumor cells, the “Threshold of tumor cell numbers” value (HPV-16; Sample # 16) was 6.0 tumor cells and the “Threshold of tumor cell numbers” value (HPV-16; Sample # 17) was 6.0 tumor cells. For the same molecule, the “Threshold of tumor cell numbers” value (HPV-16; Sample # 18) was 1.2 tumor cells, the “Threshold of tumor cell numbers” value (HPV-16; Sample # 19) was 0.3 tumor cells and the “Threshold of tumor cell numbers” value (HPV-16; Sample # 20) was 1.2 tumor cells. The “Threshold of tumor cell numbers” value (HPV-16; Sample # 21) was 0.6 tumor cells, the “Threshold of tumor cell numbers” value (HPV-16; Sample # 22) was 0.3 tumor cells and the “Threshold of tumor cell numbers” value (HPV-16; Sample # 23) was 1.2 tumor cells. The “Threshold of tumor cell numbers” value (HPV-16; Sample # 24) was 0.6 tumor cells, the “Threshold of tumor cell numbers” value (HPV-16; Sample # 25) was 1.2 tumor cells and the “Threshold of tumor cell numbers” value (HPV-16; Sample # 26) was 0.6 tumor cells. For the same molecule, the “Threshold of tumor cell numbers” value (HPV-16; Sample # 27) was 0.6 tumor cells, the “Threshold of tumor cell numbers” value (HPV-16; Sample # 28) was 1.0 tumor cells and the “Threshold of tumor cell numbers” value (HPV-16; Sample # 29) was 1.0 tumor cells. For the same molecule, the “Threshold of tumor cell numbers” value (HPV-16; Sample # 30) was 30.0 tumor cells, the “Threshold of tumor cell numbers” value (HPV-16; Sample # 31) was 0.6 tumor cells and the “Threshold of tumor cell numbers” value (HPV-16; Sample # 32) was 9.0 tumor cells. For the same molecule, the “Sensitivity, 1 cell” value (HPV-16; [2]) was 0.219, the “Sensitivity, 3 cells” value (HPV-16; [2]) was 0.531* and the “Sensitivity, 10 cells” value (HPV-16; [2]) was 0.781*. For the same molecule, the “Sensitivity, 30 cells” value (HPV-16; [2]) was 0.875 and the “Sensitivity, 100 cells” value (HPV-16; [2]) was 0.938.
